In patent publication US6218168A, “Process for preparing O-acetylserine, L-cysteine and L-cysteine-related products” (Consortium fur elektrochemische Inudstrie GmbH, priority 1995, dated 2001):
Residue numbers refer to the chain shown, from its start.

B1: cysE-Del256: carboxyterminal deletion of 17 amino acids, terminal Met256 (protein, UniProt P0A9D4 1-256, looked up, fragment)
chain: MSCEELEIVWNNIKAEARTLADCEPMLASFYHATLLKHENLGSALSYMLANKLSSPIMPAIAIREVVEEAYAADPEMIASAACDIQAVRTRDPAVDKYSTPLLYLKGFHALQAYRIGHWLWNQGRRALAIFLQNQVSVTFQVDIHPAAKIGRGIMLDHATGIVVGETAVIENDVSILQSVTLGGTGKSGGDRHPKIREGVMIGAGAKILGNIEVGRGAKIGAGSVVLQPVPPHTTAAGVPARIVGKPDSDKPSMDM
B2: cysE-Del250: carboxyterminal deletion of 23 amino acids, terminal Asp250 (protein, UniProt P0A9D4 1-250, looked up, fragment)
chain: MSCEELEIVWNNIKAEARTLADCEPMLASFYHATLLKHENLGSALSYMLANKLSSPIMPAIAIREVVEEAYAADPEMIASAACDIQAVRTRDPAVDKYSTPLLYLKGFHALQAYRIGHWLWNQGRRALAIFLQNQVSVTFQVDIHPAAKIGRGIMLDHATGIVVGETAVIENDVSILQSVTLGGTGKSGGDRHPKIREGVMIGAGAKILGNIEVGRGAKIGAGSVVLQPVPPHTTAAGVPARIVGKPDSD
B3: cysE-Del257: carboxyterminal deletion of 16 amino acids, terminal Asp257 (protein, UniProt P0A9D4 1-257, looked up, fragment)
chain: MSCEELEIVWNNIKAEARTLADCEPMLASFYHATLLKHENLGSALSYMLANKLSSPIMPAIAIREVVEEAYAADPEMIASAACDIQAVRTRDPAVDKYSTPLLYLKGFHALQAYRIGHWLWNQGRRALAIFLQNQVSVTFQVDIHPAAKIGRGIMLDHATGIVVGETAVIENDVSILQSVTLGGTGKSGGDRHPKIREGVMIGAGAKILGNIEVGRGAKIGAGSVVLQPVPPHTTAAGVPARIVGKPDSDKPSMDMD
B4: cysE-Del258: carboxyterminal deletion of 15 amino acids, terminal Gln258 (protein, UniProt P0A9D4 1-258, looked up, fragment)
chain: MSCEELEIVWNNIKAEARTLADCEPMLASFYHATLLKHENLGSALSYMLANKLSSPIMPAIAIREVVEEAYAADPEMIASAACDIQAVRTRDPAVDKYSTPLLYLKGFHALQAYRIGHWLWNQGRRALAIFLQNQVSVTFQVDIHPAAKIGRGIMLDHATGIVVGETAVIENDVSILQSVTLGGTGKSGGDRHPKIREGVMIGAGAKILGNIEVGRGAKIGAGSVVLQPVPPHTTAAGVPARIVGKPDSDKPSMDMDQ
B5: cysEII: feedback-resistant serine acetyltransferase allele, Gly238->Ser238 (protein, UniProt P0A9D4 1-273, looked up, variant G238S)
Serine acetyltransferase: MSCEELEIVWNNIKAEARTLADCEPMLASFYHATLLKHENLGSALSYMLANKLSSPIMPAIAIREVVEEAYAADPEMIASAACDIQAVRTRDPAVDKYSTPLLYLKGFHALQAYRIGHWLWNQGRRALAIFLQNQVSVTFQVDIHPAAKIGRGIMLDHATGIVVGETAVIENDVSILQSVTLGGTGKSGGDRHPKIREGVMIGAGAKILGNIEVGRGAKIGAGSVVLQPVPPHTTAASVPARIVGKPDSDKPSMDMDQHFNGINHTFEYGDGI
B6: cysEIII: feedback-resistant serine acetyltransferase allele, Gly165->Asp165 (protein, UniProt P0A9D4 1-273, looked up, variant G165D)
Serine acetyltransferase: B5 Serine acetyltransferase with G165D, S238G
B7: cysE-Del249: carboxyterminal deletion of 24 amino acids, terminal Ser249 (protein, UniProt P0A9D4 1-249, looked up, fragment)
chain: MSCEELEIVWNNIKAEARTLADCEPMLASFYHATLLKHENLGSALSYMLANKLSSPIMPAIAIREVVEEAYAADPEMIASAACDIQAVRTRDPAVDKYSTPLLYLKGFHALQAYRIGHWLWNQGRRALAIFLQNQVSVTFQVDIHPAAKIGRGIMLDHATGIVVGETAVIENDVSILQSVTLGGTGKSGGDRHPKIREGVMIGAGAKILGNIEVGRGAKIGAGSVVLQPVPPHTTAAGVPARIVGKPDS
B8: cysE-Del248: carboxyterminal deletion of 25 amino acids, terminal Asp248 (protein, UniProt P0A9D4 1-248, looked up, fragment)
chain: MSCEELEIVWNNIKAEARTLADCEPMLASFYHATLLKHENLGSALSYMLANKLSSPIMPAIAIREVVEEAYAADPEMIASAACDIQAVRTRDPAVDKYSTPLLYLKGFHALQAYRIGHWLWNQGRRALAIFLQNQVSVTFQVDIHPAAKIGRGIMLDHATGIVVGETAVIENDVSILQSVTLGGTGKSGGDRHPKIREGVMIGAGAKILGNIEVGRGAKIGAGSVVLQPVPPHTTAAGVPARIVGKPD
B9: cysE-Del259: carboxyterminal deletion of 14 amino acids, terminal His259 (protein, UniProt P0A9D4 1-259, looked up, fragment)
chain: MSCEELEIVWNNIKAEARTLADCEPMLASFYHATLLKHENLGSALSYMLANKLSSPIMPAIAIREVVEEAYAADPEMIASAACDIQAVRTRDPAVDKYSTPLLYLKGFHALQAYRIGHWLWNQGRRALAIFLQNQVSVTFQVDIHPAAKIGRGIMLDHATGIVVGETAVIENDVSILQSVTLGGTGKSGGDRHPKIREGVMIGAGAKILGNIEVGRGAKIGAGSVVLQPVPPHTTAAGVPARIVGKPDSDKPSMDMDQH

Tested on: serine acetyltransferase
Test: Serine acetyltransferase enzyme activity test with and without L-cysteine (inhibitor constant Ki, specific activity)
Format: biochemical, E. coli
Details: for Ki: inhibitor L-cysteine
Excerpt: Any method which enables the activity of the serine acetyltransferase to be determined in the presence of cysteine can be used for determining the cysteine sensitivity of this enzyme. For example, the serine acetyltransferase activity can be determined using the method described by Kredich and Tomkins, J. Biol. Chem. 241: 4955-4965 (1966). In this test, the enzyme test mixture contains the substrate, L-serine, and the cofactor, acetyl-coenzyme A. The reaction is started by adding enzyme and monitored, in a spectro photometer, by observing the decrease in absorption at 232 nm which is elicited by the cleavage of the thioester bond in the acetyl-coenzyme A.
The above-described enzyme test is suitable for determining the cysteine sensitivity of any serine acetyltransferase enzyme, including the enzymes which have a modified carboxyl terminus. Inhibition of the serine acetyltransferase activity is tested in the presence of differing concentrations of L-cysteine in the reaction mixture. The catalytic activity of the different serine acetyltransferase enzymes is determined in the presence and absence of L-cysteine, and the inhibitor constant, Ki, is ascertained from this (Kredich and Tomkins, J. Biol. Chem., 241, 4955-4965 (1966)).
In order to investigate the biochemical basis of the cysteine secretion of the revertants, the activity of the serine acetyltransferase was determined in vitro, and the ability of cysteine to inhibit the enzyme was measured. For the determination, use was made of S30 extracts (cell homogenates centrifuged at 30,000 g and 4° C. for 20 minutes) of the selected revertants, the starting strains and the comparison strain, E. coli W3110 (ATTC 27325).
The biochemical parameters such as enzyme activity and inhibitor constant, Ki, were determined in an analogous manner to that described in Example 1.
The plasmids resulting from this cloning were designated pACYC184/cysE-Del in accordance with the extent of their deletion (cf. FIG. 9 for the plasmid map). Determination of the enzymic activity and the inhibitor constant, Ki, and also the cross-feeding test, were carried out in analogy with the description in Example 1. DNA sequence analysis was used to confirm that the deletions had been correctly introduced.
Determination of the enzymic activity and of the inhibitor constant Ki, and also the cross-feeding test, were carried out in analogy with the description in Example 1.

[1] = Table 1b, carboxyterminal deletions
[2] = Table 6, carboxyterminal deletions
[3] = Table 1a, 1 mM L-serine, 0.1 mM acetyl-CoA
[4] = Table 1a, serine acetyltransferase activity
[5] = Table 2, alleles from chemical mutagenesis

Row | Molecule | spec. act. [1] | Ki [1] | Ki [2] | Ki [3] | spec. act. [4] | Ki [5]
1 | B1 | 0.366 μmol/min x mg | 12.5 µM | 12.5 µM |  |  | 
2 | B2 | 0.405 μmol/min x mg | 20 µM | 20 µM |  |  | 
3 | B3 | 0.394 μmol/min x mg | 7.5 µM | 7.5 µM |  |  | 
4 | B4 | 0.256 μmol/min x mg | 5 µM | 5 µM |  |  | 
5 | B5 |  |  |  | 10 µM | 0.068 µmol/min/mg | 10 µM
6 | B6 |  |  |  | 10 µM | 0.030 µmol/min/mg | 10 µM
7 | B7 | 0.420 μmol/min x mg | 15 µM | 15 µM |  |  | 
8 | B8 | 0.270 μmol/min x mg | 12.5 µM | 12.5 µM |  |  | 
9 | B9 | 0.328 μmol/min x mg | 7.5 µM | 7.5 µM |  |  | 
